Data taken from the Human Domainome abundance scans (Beltran et al. 2025).
± gives the uncertainty stated by the source.

B1: Tumor protein 63, residues 545 to 610; numbered along this chain, Q9H3D4 (parent)
chain: TDCSIVSFLARLGCSSCLDYFTTQGLTTIYQIEHYSMDDLASLKIPEQFRHAIWKGILDHRQLHEF

Variants of: B1
Test: abundance fitness (aPCA) (normalised: wild type 0, dead -1); higher = more abundant; growth selection in yeast, the domain comes from the species named
Details: Homo sapiens

Variant	abundance fitness
S42C	-0.061 ± 0.035
S42I	0.004 ± 0.034
S36I	-0.188 ± 0.04
S36W	-0.436 ± 0.05
S36A	-0.062 ± 0.025
S36P	-0.608 ± 0.057
S36E	-0.014 ± 0.036
S36M	-0.096 ± 0.05
S36Y	-0.311 ± 0.068
S36L	-0.177 ± 0.027
S36T	-0.023 ± 0.044
S36V	-0.09 ± 0.025
S36R	-0.071 ± 0.024
S36G	-0.028 ± 0.018
S36H	-0.13 ± 0.092
S36N	0.009 ± 0.055
S36F	-0.379 ± 0.04
S36Q	-0.049 ± 0.044
D38R	-0.03 ± 0.022
D38E	0.004 ± 0.051
D38K	-0.035 ± 0.13

Variant	abundance fitness
D38Y	-0.055 ± 0.086
D38S	-0.029 ± 0.042
D38T	-0.033 ± 0.03
D38F	-0.07 ± 0.15
D38Q	-0.026 ± 0.045
D38C	-0.082 ± 0.06
D38P	-0.105 ± 0.051
D38A	-0.01 ± 0.031
D38L	-0.039 ± 0.034
D38G	-0.021 ± 0.034
D38N	-0.071 ± 0.078
D38I	-0.077 ± 0.031
D38W	-0.085 ± 0.04
D38M	0.048 ± 0.26
D38V	0.01 ± 0.032
D39P	-0.864 ± 0.081
D39A	-0.108 ± 0.03
D39S	-0.143 ± 0.029
D39K	-0.093 ± 0.031
D39T	-0.124 ± 0.036
D39I	-0.449 ± 0.07

Variant	abundance fitness
D39Q	-0.032 ± 0.044
D39Y	-0.437 ± 0.042
D39H	-0.163 ± 0.049
D39R	-0.171 ± 0.02
D39E	-0.047 ± 0.048
D39F	-0.478 ± 0.037
D39L	-0.238 ± 0.025
D39V	-0.265 ± 0.032
D39W	-0.554 ± 0.03
Y35F	-0.012 ± 0.038
Y35E	-0.706 ± 0.04
Y35N	-0.392 ± 0.032
Y35R	-0.48 ± 0.021
Y35P	-0.955 ± 0.15
Y35H	-0.103 ± 0.034
Y35C	-0.099 ± 0.034
Y35K	-0.147 ± 0.037
Y35T	-0.318 ± 0.028
Y35W	0.001 ± 0.024
Y35V	-0.118 ± 0.024
Y35Q	-0.394 ± 0.04

Variant	abundance fitness
Y35A	-0.131 ± 0.026
Y35D	-0.698 ± 0.088
Y35M	0.03 ± 0.022
Y35G	-0.635 ± 0.023
Y35S	-0.251 ± 0.023
Y35I	-0.257 ± 0.061
M37R	-0.037 ± 0.026
M37C	-0.083 ± 0.039
M37D	-0.138 ± 0.039
M37F	-0.009 ± 0.072
M37S	-0.083 ± 0.025
M37A	-0.063 ± 0.025
M37V	-0.011 ± 0.027
M37Q	-0.07 ± 0.031
M37T	-0.076 ± 0.029
M37E	-0.014 ± 0.039
M37P	-0.014 ± 0.037
M37W	-0.071 ± 0.044
M37Y	-0.049 ± 0.05
M37N	-0.132 ± 0.037
M37G	-0.215 ± 0.028
